Results as given in patent US9688764B2, “Methods of treating breast cancer by administering anti-human prolactin receptor (PRLR) antibodies” (REGENERON PHARMACEUTICALS, INC., priority 2013, dated 2017).

What was measured:
PC3/hPRLR cells = test: Cell viability (cell kill) assay; format: cell-based, human; conditions: PC3/PRLR; Table 11; 3 days
Procedure, shortened: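 PC3 and PC3/hPRLR (lipofection-generated, FACS-enriched for PRLR) cells exposed 3 days to anti-PRLR ADCs or free DM1-SMe, 500 nM to 5 pM. Viability by CCK8 OD450, digitonin background subtracted, as % of untreated; IC50 from four-parameter fit of 10-point curves.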

[1] = Conjugate characterization: protein and linker/payload concentrations, payload loading (UV, MALDI-TOF, SEC-HPLC, RP-HPLC); format: physicochemical; conditions: Anti-PRLR-SMCC-DM1 conjugates; Table 9
Text: Selected anti-PRLR antibodies were conjugated to the maytansinoid DM1 through an SMCC linker using methods similar to those set forth in U.S. Pat. No. 5,208,020 and US Patent Application Publication No. 2010/0129314, the disclosures of which are incorporated by reference herein in their entireties. The conjugates were purified by size exclusion chromatography and sterile filtered. All starting materials and solvents were purchased commercially and used without purification, unless otherwise noted.
Protein and linker/payload concentrations were determined by UV spectral analysis and MALDI-TOF mass spectrometry. Size-exclusion HPLC established that all conjugates used were >95% monomeric, and RP-HPLC established that there was <0.5% unconjugated linker payload. Yields are reported in Table 8 and 9 based on protein. All conjugated antibodies were analyzed by UV for linker payload loading values according to Hamblett et al, 2004, Clinical Cancer Research 10(20):7063-7070, and by mass difference, native versus conjugated.

MCF7/PRLR tumors = test: Tumor growth inhibition in xenograft-bearing mice; format: in vivo, NCr nude mice; conditions: MCF7/PRLR tumors TRIAL #2; multi-dose 5 mg/kg; NCr Nude mice; Day 63
Text: (§1) Briefly, 20×10^6 MCF7/PRLR cells (ATCC HTB-22 transfected with full length hPRLR as previously described) were implanted subcutaneously into the left mammary fat pad of female NCr nude mice. In other studies, 10×10^6 PC3/PRLR (ATCC CRL-1435 transfected with full length hPRLR as previously described) were implanted subcutaneously into the left flank of male SCID mice. Additionally, 10×10^6 parental T47D (ATCC HTB-133) or […] T47D#11 cells (ATCC HTB-133 serially passaged in vivo as described below) were subcutaneously implanted into the left flank of female CB17 SCID mice. All mice were obtained from Taconic (Hudson, N.Y.). Each bolus of cells was supplemented with a 90-day estrogen release pellet (1.7 mg/pellet; Innovative Research America, Sarasota Fla.). Once tumors had reached an average volume of 250 mm^3, mice were randomized into groups of seven and dosed with anti-PRLR antibody-drug conjugates of the invention or control reagents. Control reagents included PBS vehicle, free methyl-disulfide DM1 (DM1-SMe) and isotype Control 1-DM1.
(§2) In multi-dose studies, mice were dosed once a week for a total of three weeks with tumor volumes and body weights being monitored twice weekly throughout the study. Test ADCs were dosed at 5 and/or 15 mg/kg in the multi-dose studies. In single-dose studies, mice received a single dose of test ADC, and tumor volumes and body weights were monitored twice weekly throughout the study. Test ADCs were dosed at 1, 2.5, 5, and 15 mg/kg in the single-dose studies. Average tumor size as well as tumor growth inhibition relative to the vehicle treated group were calculated for each group. Tumors were measured with calipers twice a week until the average size of the vehicle group reached 1000 mm^3. Tumor size was calculated using the formula (length×width^2)/2. Tumor growth inhibition was calculated according to the following formula: (1−((Tfinal−Tinitial)/(Cfinal−Cinitial)))*100, where T (treated group) and C (control group) represent the mean tumor mass on the day the vehicle group reached 1000 mm^3. […] Results are summarized in Tables 21-25 (multi-dose) and Table 26 (single dose). (NT=not tested in the particular experiment shown).

PC3/PRLR tumors = test: Tumor growth inhibition in xenograft-bearing mice; format: in vivo, SCID mice; conditions: PC3/PRLR tumors TRIAL #2; multi-dose 5 mg/kg; SCID mice; Day 55
Text: as §1, §2

PC3 cells = test: Cell viability (cell kill) assay; format: cell-based; conditions: Table 11, 3 days
Text: PRLR-overexpressing cells, including HEK293, PC3, MCF7 and NCI-N87, were generated to assess the ability of anti-PRLR conjugated antibodies to reduce cell viability. For comparative purposes, PC3 and T47D cells with overexpressed ErbB2 were also generated, as well as an MCF7 cell line over-expressing both hPRLR and hErbB2. Briefly, Lipofectamine® 2000-mediated transfection methodology was utilized to generate HEK293 cells expressing human PRLR (HEK293/hPRLR) or human ErbB2 (HEK293/hErbB2). Lipofectamine LTX with Plus Reagent was used to generate PC3 cells expressing human PRLR (PC3/hPRLR) or human ErbB2 (PC3/hErbB2). Lentiviral-mediated transduction was utilized to generate MCF7 cells expressing human PRLR (MCF7/hPRLR), NCI-N87 cells expressing human PRLR (NCI-N87/hPRLR), T47D cells over-expressing human ErbB2 (T47D/hErbB2), and MCF7 cells expressing both human PRLR and human ErbB2 (MCF7/hPRLR/hErbB2). All lines were selected for at least two weeks in complete growth media plus appropriate selection reagents. Stably expressing populations were enriched for PRLR expression via FACS using the anti PRLR antibody Control I.
Next, the ability of anti-PRLR-DM1 antibody-drug conjugates (i.e., anti-PRLR antibodies conjugated to DM1 via a non-cleavable linker [SMCC]) to reduce cell viability was determined using in vitro cell based assays. Cells were seeded in PDL-coated 96 well plates at 1500 to 10000 cells per well in complete growth media and allowed to grow overnight. For cell viability curves, ADCs or free DM1 (as the methyl disulfide derivative DM1-SMe) were added to the cells at final concentrations ranging from 500 nM to 5 pM and incubated for 3 days. The 293, PC3 and T47D cells were incubated with CCK8 (Dojindo, Rockville, Md.) for the final 1-3 hours and the absorbance at 450 nm (OD450) was determined on a Flexstation3 (Molecular Devices, Sunnyvale, Calif.). MCF7 cells were treated with Hoechst 33342 nuclear stain while being fixed with 4% formaldehyde. Images were acquired on the ImageXpress micro XL (Molecular Devices, Sunnyvale, Calif.) and nuclear counts were determined via Columbus image analysis software (Perkin Elmer, Shelton, Conn.). Background OD450 values (PC3, 293, and T47D) or nuclear counts (MCF7) from digitonin (40 nM) treated cells was subtracted from all wells and viability was expressed as a percentage of the untreated controls. IC50 values were determined from a four-parameter logistic equation over a 10-point response curve (GraphPad Prism).
Finally, the potency of anti-PRLR antibodies conjugated to DM1 via the non-cleavable linker SMCC was compared to the cell killing potency of anti-PRLR antibodies conjugated to MMAE via the cleavable linker: mc-vc-PAB (available from Concortis, San Diego, Calif.). Cells used in this experiment were PC3, PC3/hPRLR, MCF7/ATCC and MCF7/PRLR.

T47D#11 tumors = test: Tumor growth inhibition in xenograft-bearing mice; format: in vivo, CB17 SCID mice
Text: as §1, §2

[2] = tested on: MCF7/hPRLR (MCF7/PRLR) cells; test: Cell viability (cell kill) assay, nuclear counts; format: cell-based, human; conditions: Table 12, 3 days
Procedure, shortened: (§3)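 Anti-PRLR ADCs or free DM1-SMe were added at 500 nM to 5 pM final to cells seeded overnight and were incubated 3 days. MCF7 lines were fixed with 4% formaldehyde plus Hoechst 33342, and nuclei were counted by imaging, with digitonin […] background subtracted. Viability was expressed as % of untreated cells, and IC50 was obtained from a 4-parameter fit of a 10-point curve.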

MCF7 (MCF7/ATCC) cells = test: Cell viability (cell kill) assay, nuclear counts; format: cell-based; conditions: MCF7; Table 12; 3 days
Procedure, shortened: as §3

T47D cells = test: Cell viability (cell kill) assay; format: cell-based; conditions: T47D, Table 12, 3 days
Procedure, shortened: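 T47D cells grown overnight, then exposed 3 days to anti-PRLR ADCs (DM1 via non-cleavable SMCC linker, or other maytansinoid toxins) or free DM1-SMe, 500 nM to 5 pM. Viability by CCK8 OD450, digitonin background subtracted, as % of untreated; IC50 from 10-point four-parameter fit. PRL (15 nM) co-incubation tested separately.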

HEK293 (293) cells = test: Cell viability (cell kill) assay; format: cell-based; conditions: 293; Table 11; 3 days
Procedure, shortened: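 Anti-PRLR–DM1 ADCs (non-cleavable SMCC linker) or free DM1-SMe, 500 nM to 5 pM for 3 days on parental or hPRLR-overexpressing lines. HEK293: CCK8 OD450; MCF7: Hoechst nuclear counts by imaging.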

[3] = target: T1, IL-6R on KG-1, HEK293, HEK293/IL-4R and Ramos cells (Homo sapiens, UniProt P08887); test: FACS relative cell surface expression with anti-IL-6R antibody VV6A9-5; format: binding
T1 construct: KG-1 (IL-4R^+), HEK293/IL-4R and Ramos (IL-6R^+) cells; endogenous in cells; host or cells: Ramos (IL-6R+), KG-1, HEK293, HEK293/IL-4R
T1 sequence (P08887 20-468): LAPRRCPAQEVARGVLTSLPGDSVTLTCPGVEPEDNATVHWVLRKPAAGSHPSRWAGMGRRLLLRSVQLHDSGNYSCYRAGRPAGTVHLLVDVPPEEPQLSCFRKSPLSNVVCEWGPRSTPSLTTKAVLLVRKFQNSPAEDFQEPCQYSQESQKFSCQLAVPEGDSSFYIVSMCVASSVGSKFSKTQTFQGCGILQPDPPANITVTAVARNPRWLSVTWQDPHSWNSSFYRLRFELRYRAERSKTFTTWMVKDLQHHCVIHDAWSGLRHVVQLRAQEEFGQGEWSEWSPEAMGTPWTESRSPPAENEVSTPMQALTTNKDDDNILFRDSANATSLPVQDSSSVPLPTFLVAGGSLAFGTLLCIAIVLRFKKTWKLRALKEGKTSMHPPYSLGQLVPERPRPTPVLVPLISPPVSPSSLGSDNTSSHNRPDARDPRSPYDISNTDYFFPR
Description: Cell surface antigen levels on cells that endogenously or recombinantly express IL-4R or IL-6R were first established using FACS. Briefly, approximately 1 million KG-1 (IL-4R^+), HEK293/IL-4R and Ramos (IL-6R^+) cells were incubated with exemplary anti-IL-4R (H4H083P2, see U.S. Pat. No. 7,608,693) and anti-IL-6R (VV6A9-5, see U.S. Pat. No. 7,582,298) antibodies for 30 min on ice. After washing, a PE-conjugated anti-human secondary antibody (10 μg/ml) was added for 30 min followed by a second washing step and subsequent analysis on an Accuri C6 cytometer using FlowJo software (Tree Star, Inc., Ashland, Oreg.). Relative IL-4R and IL-6R cell surface expression levels were calculated as the mean fluorescence intensity (MFI) above isotype control levels.

Molecule	% Kill (PC3/hPRLR cells)	IC50 (PC3/hPRLR cells)	Payload:Antibody Molar Ratio (MS) [1]	Final Tumor size mm^3 (mean ± SEM) (MCF7/PRLR tumors)	Average Tumor Growth Inhibition (%) (PC3/PRLR tumors)	% Kill (PC3 cells)	Average Tumor Growth Inhibition (%) (T47D#11 tumors; T47D#11 tumors, multi-dose 5 mg/kg, SCID mice, Day 66)	effect on T47D#11 tumor growth (T47D#11 tumors; multi-dose, 5 and 15 mg/kg)	% Kill [2]	IC50 [2]	% Kill (MCF7 (MCF7/ATCC) cells)	IC50 (MCF7 (MCF7/ATCC) cells)	% Kill (T47D cells)	IC50 (T47D cells; read-out: IC50)	% Kill (HEK293 (293) cells)	IC50 (HEK293 (293) cells)	IL-6R Cell Line Expression Level; Fold Over Background ([3]; HEK293)	IL-6R Cell Line Expression Level; Fold Over Background ([3]; HEK293/IL4R)	IL-6R Cell Line Expression Level; Fold Over Background ([3]; KG-1)	IL-6R Cell Line Expression Level; Fold Over Background ([3]; Ramos)
H1H6765P-DM1: anti-PRLR antibody H1H6765P conjugated to DM1 through an SMCC linker (conjugate) VH: EVQLVESGGGVVRPGGSLRLSCVGSGFSFDDHGMNWVRQGPGKGLEWVSGFNWNGGSTNYAESVKGRFTISRDNARNSLFLQMNSLRAEDTALYYCVRGRSGWFNDAFDVWGPGTMVTVSS VL: EIVLTQSPGTLSLSPGERATLSCRASQTINSNYLAWYRQKPGQTPRLLIYGTSSRATGIPDRFSGSGSGTDFSLTISRLEPEDFAVFYCQQYAGLPTFGPGTKVDIK	70%	0.57 nM	2.3	90 ± 56 mm^3	70%	70%	100%	potently inhibited tumor growth	84%	0.18 nM	68%	150 nM	78%	1.63 nM	86%	100 nM				
VV6A9-5: exemplary anti-IL-6R antibody, see U.S. Pat. No. 7,582,298 (antibody, V domains shown) VH: EVQLVESGGGLVQPGRSLRLSCAASGFTFDDYALHWVRQAPGKGLEWVSGVSWNGGRIGYADSVKGRFTISRDNAKNSLFLQMNSLRVEDTALYYCAKGRDAFDIWGQGTLVTVSS VL: DIQMTQSPSSVSASVGDRVTITCRASQGISSWLAWYQQKPGKAPKLLIYAASSLQSGVPSRFSGSGSGTDFTLTISSLQPEDFATYYCQHAYSFPYTFGQGTKLEIK																	1	1	7	1
